Molecular target: the molecule itself
Assay: crystal structure; GOT1 (16 mg/mL) mixed with 40 uM AH, sitting-drop vapor diffusion, 18 °C, 0.1 M HEPES pH 7.5, 12% w/v PEG 3350; 2.6 Å; two subunits (chains A and B) form the dimer

B1: glutamic oxaloacetate transaminase 1 (GOT1) (enzyme, human)
chain: PPSVFAEVPQAQPVLVFKLTADFREDPDPRKVNLGVGAYRTDDCHPWVLPVVKKVEQKIANDNSLNHEYLPILGLAEFRSCASRLALGDDSPALKEKRVGGVQSLGGTGALRIGADFLARWYNGTNNKNTPVYVSSPTWENHNAVFSAAGFKDIRSYRYWDAEKRGLDLQGFLNDLENAPEFSIVVLHACAHNPTGIDPTPEQWKQIASVMKHRFLFPFFDSAYQGFASGNLERDAWAIRYFVSEGFEFFCAQSFSKNFGLYNERVGNLTVVGKEPESILQVLSQMEKIVRITWSNPPAQGARIVASTLSNPELFEEWTGNVKTMADRILTMRSELRARLEALKTPGTWNHITDQIGMFSFTGLNPKQVEYLVNEKHIYLLPSGRINVSGLTTKNLDYVATSIHEAVTKIQ
modifications: in the crystal: C17 atom of AH covalently linked to the N atom of Lys259 in chain A; PLP in chain B
notes: GOT1, expression construct pET26b-got1; Domains described in the structure span residues 17-411; also called WT-GOT1; glutamic-oxaloacetic transaminase 1; source: E. coli BL21 (DE3), purified (HisTrap FF, Resource Q, Superdex200 Increase)
B1: binds.

From article PMC8618880, “Discovery of GOT1 Inhibitors from a Marine-Derived Aspergillus terreus That Act against Pancreatic Ductal Adenocarcinoma” (Marine Drugs, 2021)
